From article PMC8121789, “Characterization of an engineered live bacterial therapeutic for the treatment of phenylketonuria in a human gut-on-a-chip” (Nature Communications, 2021)

Substrate: N[C@@H](Cc1ccccc1)C(=O)O
Test: Phe consumption by live engineered cells, Michaelis-Menten model
Format: cell-based, Photorhabdus laumondii
Details: apparent whole-cell pathway value (PheP uptake plus PAL), not purified enzyme; in vitro Phe consumption assays

B1: phenylalanine ammonia lyase (PAL) (Photorhabdus laumondii subsp. laumondii TTO1) (protein)
chain: MKAKDVQPTIIINKNGLISLEDIYDIAIKQKKVEISTEITELLTHGREKLEEKLNSGEVIYGINTGFGGNANLVVPFEKIAEHQQNLLTFLSAGTGDYMSKPCIKASQFTMLLSVCKGWSATRPIVAQAIVDHINHDIVPLVPRYGSVGASGDLIPLSYIARALCGIGKVYYMGAEIDAAEAIKRAGLTPLSLKAKEGLALINGTRVMSGISAITVIKLEKLFKASISAIALAVEALLASHEHYDARIQQVKNHPGQNAVASALRNLLAGSTQVNLLSGVKEQANKACRHQEITQLNDTLQEVYSIRCAPQVLGIVPESLATARKILEREVISANDNPLIDPENGDVLHGGNFMGQYVARTMDALKLDIALIANHLHAIVALMMDNRFSRGLPNSLSPTPGMYQGFKGVQLSQTALVAAIRHDCAASGIHTLATEQYNQDIVSLGLHAAQDVLEMEQKLRNIVSMTILVVCQAIHLRGNISEIAPETAKFYHAVREISSPLITDRALDEDIIRIADAIINDQLPLPEIMLEE
notes: PAL genes inserted in chromosome of host E. coli Nissle 1917 strain SYN5183 (FNR and Ptac promoters), co-expressed with transporter PheP; live cells
Work on B1 yielded a Km of 200 µM.
